This is an account of results in publication PMC4877046, “TrmBL2 from Pyrococcus furiosus Interacts Both with Double-Stranded and Single-Stranded DNA” (PLoS ONE, 2016).

The target of data set [1] is T1, TrmBL2 (Pyrococcus furiosus, UniProt Q8U3H1 1-264).
T1 sequence: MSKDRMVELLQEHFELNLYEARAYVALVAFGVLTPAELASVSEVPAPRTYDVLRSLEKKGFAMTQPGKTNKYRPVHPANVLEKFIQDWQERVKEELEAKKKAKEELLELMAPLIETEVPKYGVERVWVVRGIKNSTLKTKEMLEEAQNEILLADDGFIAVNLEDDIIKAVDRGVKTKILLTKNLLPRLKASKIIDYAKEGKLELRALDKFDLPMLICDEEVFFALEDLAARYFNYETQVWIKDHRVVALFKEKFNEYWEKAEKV
In words: magnetic tweezers (persistence length). The settings on record: half-coverage, Hill coefficient 3.0 +/- 0.33; EMSA: PBS, 10 nM DNA, 1 h, room temperature, 8% PAGE in PBS; magnetic tweezers: PBS pH 7.4, 5 mM NaN3, room temperature. For orientation: Mobility shift assays separate free from complexed probe on a gel.

Data set [2] deals with the molecule itself. The data set is described as follows: SEC; gel filtration on a 60 ml Superdex 200 column, 40 mM HEPES pH 7.5, 150 mM NaCl; last step of the purification. A general note: In gel filtration, larger molecules generally elute earlier.
For data set [3], the target named is T1, TrmBL2. The data set is described as follows: EMSA; apparent Kd, Hill fit, Hill coefficient 2.9 +/- 0.4; Fig 6 legend gives 2.0 uM; EMSA: PBS, 10 nM DNA, 1 h, room temperature, 8% PAGE in PBS; magnetic tweezers: PBS pH 7.4, 5 mM NaN3, room temperature. The settings on record: protein: recombinant; chain copies: 2; label: 5'-Cy5.
Data set [4] addresses T1, TrmBL2. The data set is described as follows: EMSA; apparent Kd, Hill fit, Hill coefficient 4.4 +/- 0.6; Fig 6 legend gives 1.0 uM; EMSA: PBS, 10 nM DNA, 1 h, room temperature, 8% PAGE in PBS; magnetic tweezers: PBS pH 7.4, 5 mM NaN3, room temperature. The settings on record: protein: recombinant; chain copies: 2; label: 5'-Cy5 on S1; blunt.

dsDNA tether for magnetic tweezers displayed a K half in data set [1] of 300 nM.

B1: TrmBL2 from Pyrococcus furiosus (natural protein, UniProt Q8U3H1 1-264, looked up)
chain: MSKDRMVELLQEHFELNLYEARAYVALVAFGVLTPAELASVSEVPAPRTYDVLRSLEKKGFAMTQPGKTNKYRPVHPANVLEKFIQDWQERVKEELEAKKKAKEELLELMAPLIETEVPKYGVERVWVVRGIKNSTLKTKEMLEEAQNEILLADDGFIAVNLEDDIIKAVDRGVKTKILLTKNLLPRLKASKIIDYAKEGKLELRALDKFDLPMLICDEEVFFALEDLAARYFNYETQVWIKDHRVVALFKEKFNEYWEKAEKV
notes: TrmBL2 (30.6 kDa) from Pyrococcus furiosus; This E. coli material is dimeric by gel filtration; also called archaeal "TrmB-like" protein TrmBL2; source: E.coli BL21 (DE3), purified (heating to 80°C, Q-Sepharose, Superdex 200)
Broadly, the stoichiometry N is a count of units in the complex or per binding partner. Turning to B1, in data set [2], the “stoichiometry N” value is 2.

B2: 60mer ssDNA (ssDNA)
DNA: GATATAATATACCTATATCAATGGCCTCCCACGCATAAGCGCAGATACGTTCTGAGGGAA
With B2, the Kd in data set [3] turned out to be 2100 ± 100 nM.

B3: 60mer dsDNA (dsDNA)
DNA 1: GATATAATATACCTATATCAATGGCCTCCCACGCATAAGCGCAGATACGTTCTGAGGGAA
DNA 2: TTCCCTCAGAACGTATCTGCGCTTATGCGTGGGAGGCCATTGATATAGGTATATTATATC
Take B3: in data set [4], the Kd came to 1070 ± 30 nM.
